test: yeast display, Sf9 membrane polyspecificity reagent, FACS + sequencing; frameworks hold sequencing errors
In short: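 Polyreactivity labels are assigned by the sorting gate from which each nanobody was recovered. The gates were low and high (top ~1%), set on anti-HA fluorescence for expression and streptavidin fluorescence for reagent binding. Before sorting, galactose-induced (36–48 hours) yeast display cells were stained for 1 hour at 4 °C with 10% biotinylated, detergent-solubilized Sf9 membrane reagent.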

Sequence	polyreactivity (PSR sort gate)
QVQLVESGGGLVQAGGSLRLSCAASGINLNNYPLGSYRQAPGKDRELVAAITSSGTRTYYADSVKGRFTISRDNAKINVYLQMNSLKPEDTAVYYCAAQPVYDLWGQGTQVTVSS	high polyreactivity
QVQLVESGGGLVQAGGRLRLSCAASGYTFSIYDMGWYRPAPGKERELVAAISWSGGSTYYADSVKGRFTISRDHAKNTVYLQMNSLKPEDTAVYYCAAKRHGSEVGRGRDYWGQGTQVTVSS	high polyreactivity
QVQLVESGGGLVQAGGSLRLSCAAPGIIFVDYTMGWYRQAPGKERELVAAIDWSGGSTYYADSVKGRFTISRDNAKNTVYLQMNSLKPEDTAVYYCAALKTTYIYSSDFDYWGQGTQVTVSS	low polyreactivity
QVQLVESGGGLVQAGGRLRLSCAASGRIFYLNAMGWYRQAPGKETELVAAINTSGDATYYADSEKGRFTISRDIAKNTVYLQMNSLKPEDTAVYYCAAYVIGPDQFIYDYWGQGPQVTVSS	low polyreactivity
QVQLVESGGGLVQAGGSLRLSCAASGSIFYKNAMGWYRQAPGKERELVAVISTSGSTYYADSVKGRFTISRDNAKNTVYLQMKSLKPEDTAVYYCATKVRRWYSARSPNVRFDYWGQGTQVTVSS	high polyreactivity
QVQLVETAGGLVQAGGSLRLSCAASGRIFYGYTLGWYRPAPGKERELVAAISRGGSTYYADSVKGRFTISRDNAKNTVYLQMNSLKPEDPAVYYCAKTYRRRYYPYFHFRYYWGQGTQVTVSS	high polyreactivity
QVHLVESGGGLVQAGGSLRLSSAASGSNFGLNAMGWSRQAPGKERELVAAITWSGGSSTYYADTVKGRLTISRDNAKNSVYLQMKSLKPEDTAVYYCAARRVFIPYYVRFYYWGQGTQVTVSS	high polyreactivity
QVQLVESGGGLVQAGGSLRLSCAASGRTLARNAMGWDRQAPGKEWELVASINGRTTRTYYADSVKGRFTISRDNANNTVYLQRNSLKPEDTAVYYCAADPPGYVYGKRYYWGQGTQVTVSS	high polyreactivity
QVQLVESGGGLVQAGGSLRLSCAASGSTFRIYAMRSYRQAPGKERELGARISWNGGRTYYADSVKGRFTISRVNAKNTVYLQMNSLKPEDTAGYYCNALVPPGYDYWGQGTQVSVSS	high polyreactivity
QVQLVESGGGLVQAGGSLRLSCAASGITLYGYTMGWYRQAPGKERELVAGISRGGSTYYADSVKGRFTISRYNEKNTVFLQLNSLKPEDSEVYYCAAAGWYRGDYWGQGTQVTVSS	high polyreactivity
QVQLVESGGGLVQAGGSLRLTCAASGSSLDHYTMGWYRQAPGKEMELVAGIRWTGGRTYYADSVKGRFTISRDNAKNTVYLQMNSLKQEDNAVYYCAKTGWYGPVLRFYYWGQGTQVTVSS	high polyreactivity
QVQLVESAGGLVQAGGSLRLSCAASGYTFDFYAMGWYRQAPGKERELVAAISKNDGTTYYADSVKGRFTISRDNAKNTVYLQMNSLKPEDTAVYYCAAESGYPVYTYVSSGDYWGQGTQVTVSS	low polyreactivity
QVQLVESGGGLVQAGGSLRLSCAASGSTFGVNAMGWYRPAPGKERELVAAITYSGGSTYYADSVKGRFTISRDNAKNTVYLQMNSLKPEDTAVYYCATTWYFVASWYVAIYDYWGQGTQVTVSS	low polyreactivity
QVQLVESGGGLVQAGGSLRLSCAASGRTFQVYAMGWYTQAPGKERELVADITGRGGITYYADSVKGRFTISRDNAKNTVYLQMNSLKPEDTAVYYCAAERYNYKTIYRYDYWGQGTQVTVSS	high polyreactivity
QVQLVESGGGLVQAGGSLRLICAASGYTFGYYAMGWYRQAPGKERELVAAISWRGARTNYADSVEGRFTISRDNAKNTVYLQMNSLKPEDTAVYYCAARGGYYQGRYKYGYWGQGTQVTVSS	high polyreactivity
QVQLVESGGGLVQAGGSLRLSCAASGSTFKRNAMGWYRQAPGNERELVAAITDNTSTTFYADSVKGRFTISRDNAKNTVYLQMNSLKPEDTAVYYCAADHSGGSRYDYWGQGTQVTVSS	low polyreactivity
QVQLVESGGGLVQAGGSLRISCAASGSTLYRNAMGWYRQAPGKEMELVAAISSSGGTTFYADSVKGRFTISRDNAKNTVYLQMNSLKPEDTAVYYCNRNARKLRTVHSSVFGLDYWGQGTQVTVSS	low polyreactivity
QVQLVESGGGLVQAGGSLRLSCAASGSIFDRYVMGWYRPAPGKERELVAAISKSGGNTYYADSVKGRFTISRDYEKNTVYLQMNSLKPEDTAVYYCNARSGRYYLGYGYWGQGTQVTVSS	high polyreactivity
QVQLVESGGGFVKAGGSLRLSCASSGSIFYSYAMGWYRQAPGKEREFVAAISWSASRTYYADSVKGRFTISRDNAKNTVYLQMNSLKPEDTAVYDCAARTYYNSGYYYWGQGTQVTVSS	high polyreactivity
QVQLVESGGGLVQAGGSLRLSCAASGGTIDYAMGWYSQAPGKERELVAAISKHGGRTYYADSVKGRFTISRDNAKYTVYLQMNSLKPEDTAVYYCAADAFRGFYWGQGTQVTVSS	high polyreactivity
QVQLVESGGGLVQAGGSLRLSCAASGSTFSTYAMGSYRQAPGKERELVATISKRGGSTYYADSVKGRFTISRDNAKNTVYLQMNSLKPEDTAVYYCATPRYRYYTIYDYGYWGQGTQVTVSS	high polyreactivity
QVQLVESGGGLVQAGGSLRLSCAASGRIFIGNAMGWYRQAPGKERELVADISYSGGTTYYADSVKGRFTISRDNAKNTVYLQMNSLKPEDTAVYYCNKYDPRPVWQGWVWIEYYYWGQGTQVTVSS	low polyreactivity
QVQLQESGCGLVQAGGSLRLSCAASGYISSWYPMGWYRQAPGKEREFVATIAPGATTYYADSVKGRFTISRDYSINTVYLQMNSLKPEDTAVYYCAAGPENNDFYSYWGQGTQVTVSS	low polyreactivity
QVQLVESGGGLVQAGGSLRLSCAASGRILVSYAMGWYRQAPGKERELVAAISRSGGSTYYADSVKGRFTISRDNAKNTVYLQMNSLKPEDTAVYYCNVYRFSRYDYWGQGTQVTVSS	high polyreactivity
QVQLVESGGGLVQAGGSLRLSCAASGSIFKRNAKGWYRQAPGKERGLVAGNSQSGSSTRYADSVKGRFTISRDNAKNTVYLQMNSLKPEDTAVYYCAAELSLAYTYDYWGQGTQVTVSS	high polyreactivity
QVQHVESGGGLVQAGGSLRLSCAASGRIIRRNARGSYRLAPGKERELVAAISWSGGSTYYADSVKGRFTISRDNAKNSVDLQMNSLKQEDTAVYYCAAVPCYTGDYWGQGTQVTVSS	low polyreactivity
QVQLVESGGGLVQAGGSLRLSCAASGRISGYKVMGWYRQAPGKERELVAAISGSGGSTYYADSVKGRFTISRDNAKNTVYLQMNSLKPEDTAVYYCAKATAYPYDYWGQGTQVTVSS	low polyreactivity
QVQLVESGGGLVQAGGSLRLSCAASGRTFAAYTMGWYSQAPGKERELVAAIRRSGSSTYYADSVKGRFTISRDNAKNTVYLQMNSLKPEDTAVYYCARVGRFTGGGYWGQGTQVTVSS	high polyreactivity
QVHLVESGGGLVQAGGSLRLSCAASGSIFYDYAMVWYIQAPGKERELVAAINSGDSTYYADSVKGRFTISRDNAKNTVYLQMNSLKPEDTAVYFCAATYFSPYIEYDYWGQGTQVTVSS	low polyreactivity
QVQLVESGGGLVQAGGSLRLSCAASGRILAPYAMGWYRQAPGKERELVAAISASGGTTYYADSVKGRFTISRDNAKNTVYLQMNSLKPEDTAVYYCNARWSPGNLRYGREGDYWGQGTQVTVSS	high polyreactivity

Reference: the nanobody polyreactivity screen of Harvey et al. (2022)
